Results on six molecules are retold here after patent US20220195055A1 (SHANDONG BOAN BIOTECHNOLOGY, published 2022).

Like-named read-outs stand apart in the source and are kept apart here.

Broadly, the EC50 is the concentration giving half of the maximal effect. Higher therefore signals a need for much substance. For orientation: Kd means the free concentration of one partner at which half of the binding sites on the other are occupied at equilibrium, for simple one-to-one binding. Broadly, the koff is a measure of how fast the partners let go of each other. Higher therefore signals fast dissociation. Broadly, the kon is the second-order rate constant of association.

Test [1] concerns the target T1, CD25 protein (Sino Biological, 10165-H08H) (UniProt P01589 22-213).
T1 construct: Bought recombinant protein; It speaks elsewhere of human CD25; also called antigen CD25; IL-2Rα
T1 sequence (looked up): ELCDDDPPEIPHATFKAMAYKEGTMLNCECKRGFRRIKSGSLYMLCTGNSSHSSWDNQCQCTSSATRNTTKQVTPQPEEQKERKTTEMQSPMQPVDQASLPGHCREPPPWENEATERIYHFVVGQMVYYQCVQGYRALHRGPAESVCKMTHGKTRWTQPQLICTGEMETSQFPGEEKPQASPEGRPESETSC
Briefly: ELISA; CD25 protein coated in a dilution series, antibody at one fixed concentration, anti-human IgG/HRP. The source says:
(§1) The results are shown in FIG. 2A to FIG. 2E and Table 2 to Table 6.
A general note: An ELISA detects its analyte on a solid surface through an enzyme-linked reagent.

The target of test [2] is T2, CD25 on cells (SU-DHL-1 target cells; PBMC) (UniProt P01589 22-272, limits assumed).
T2 sequence (looked up): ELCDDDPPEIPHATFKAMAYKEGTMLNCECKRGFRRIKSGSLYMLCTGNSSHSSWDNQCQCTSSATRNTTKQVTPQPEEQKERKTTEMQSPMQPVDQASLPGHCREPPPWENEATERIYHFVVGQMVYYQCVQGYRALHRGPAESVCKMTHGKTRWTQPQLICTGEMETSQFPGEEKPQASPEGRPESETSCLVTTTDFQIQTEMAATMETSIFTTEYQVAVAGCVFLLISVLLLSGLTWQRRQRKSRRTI
Briefly: cell-based or functional assay.

For test [3], the target named is T1, CD25 protein (Sino Biological, …). Briefly: SPR (BIAcore 8K); antibody captured by anti-human IgG Fc, CD25 protein as analyte, 1:1 model. As for the experimental part:
Antibody binding kinetics uses BIAcore8K instrument based on surface plasmon resonance (SRP) technology to measure. Anti-human IgG antibody amino was coupled to a CMS biosensor chip by the GE anti Human IgG Fc amino coupling kit (GE, cat # BR-1008-39) to obtain approximately 1000 response units (RU). For kinetic measurements, the CD25 protein (Sino Biological, 10165-H08H) was diluted 2-fold continuously with HBS-EP+1×(GE, BR-1008-26) buffer, starting at 50 nM, being diluted 2-fold for 4 concentration gradients and setting 0 concentration. The antibody to be detected: 2 μg/ml, sample injection time 70 s, flow rate 5 μL/min, stable for 5 s; CD25 protein: binding for 60 s, flow rate 30 μL/min, dissociation for 450 s; regeneration: regeneration was performed for 30 s with 3M MgCl₂ buffer, Startup 3 times. The association constant (ka) and dissociation constant (kd) were calculated using a simple one-to-one Languir binding model (BIAcore Evaluation Software version 3.2), and the equilibrium dissociation constant (KD) was calculated by the ratio kd/ka.

For test [4], the target named is T2, CD25 on cells (SU-DHL-1 target cells; …). Briefly: cell-based or functional assay. This is another data set of the same source.
Test [5] concerns the target T1, CD25 protein (Sino Biological, …). Briefly: ELISA; CD25 protein coated in a dilution series, antibody at one fixed concentration, anti-human IgG/HRP.
Excerpt: as §1
The source holds these as a separate data set.

Test [6] has as its target T2, CD25 on cells (SU-DHL-1 target cells; …). Briefly: cell-based or functional assay. The source holds these as a separate data set.
In test [7] the target is T1, CD25 protein (Sino Biological, …). Briefly: ELISA; CD25 protein coated in a dilution series, antibody at one fixed concentration, anti-human IgG/HRP.
Excerpt: as §1
This is another data set of the same source.

The target is the same in test [8]. The description is as above.
Excerpt: as §1
The source holds these as a separate data set.

The target is the same in test [9]. The description is as above.
Excerpt: as §1
This is another data set of the same source.

B1: CD25Q2-BA9-IgG1 (antibody, V domains shown)
VH: QVQLQQWGAGLLKPSETLSLTCAVYGGSFSGYYWSWIRQPPGKGLEWIGEIDHSGSTIYNPSLKSRVTISLDTSKNQFSLKLSSVTAADTALYYCARGEAFDIWGQGTMVTVSS
VL: DIVMTQSPSTLSASVGDRVTITCRASQSLRSYLAWYQQKPGKAPKLLIYKASSLESGVPSRFSGSGSGTEFTLTISSLQPDDFATYYCQQYNSYSWTFGQGTKVEIKR
notes: IgG1 expressed in HEK293; also called CD25Q-BA9-IgG1
In test [1], B1 displayed an EC50 of 0.00333 µg/mL. In test [2], the “EC50 of simulated killing activity (Jurkat effector reporter cells, SU-DHL-1 target cells, luminescence)” value (“EC50 of simulated killing activity” for short) is 0.236 µg/mL. In test [3], binding was put at a Kd of 0.843 nM, the koff was determined as 0.000586 s⁻¹ and the kon amounted to 696000 M⁻¹ s⁻¹. Moreover, the “% PSTAT5 in CD3 positive T cells of PBMC after IL2, with 10 µg/mL antibody” value (“% PSTAT5 in CD3 positive T cells of PBMC” below) in test [4] is 26.1%.

B2: CD25Q11-CT848-IgG1 (antibody, V domains shown)
VH: QVQLQQWGAGLLKPSETLSLTCAVYGGSFSGSYWSWIRQSPRKGLEWIGEIDHSGSTIANPSLKSRITISLDTSKNQFFLQLRSMTAADTAVYYCARGEAFDIWGQGTMVTVSS
VL: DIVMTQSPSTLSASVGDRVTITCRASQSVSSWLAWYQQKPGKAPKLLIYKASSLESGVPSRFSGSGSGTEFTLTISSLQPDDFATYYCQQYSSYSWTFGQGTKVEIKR
notes: IgG1 expressed in HEK293
Turning to B2, in test [3], binding was characterised by a dissociation constant (Kd) of 3.09 nM, the koff is 0.00218 s⁻¹ and the kon came to 705000 M⁻¹ s⁻¹. In [5], it took 0.00916 µg/mL to reach a half-maximal effect (EC50). The “% PSTAT5 in CD3 positive T cells of PBMC” value in test [4] stood at 15.8%.

B3: CD25Q14-CA721-IgG1 (antibody, V domains shown)
VH: QVQLVQSGAEVKKPGESLKISCKGSGYSFANYWIVWVRQMPGKGLEWMGIIYPDDSETRYSPSFQGQVTFSADKSISTAYLQWSSLKASDTAMYYCTRGPYYSDYWGQGTLVTVSS
VL: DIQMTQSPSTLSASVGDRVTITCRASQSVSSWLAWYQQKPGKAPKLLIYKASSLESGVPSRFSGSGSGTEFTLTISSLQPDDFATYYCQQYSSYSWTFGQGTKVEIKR
notes: IgG1 expressed in HEK293
Take B3: in [6], the “EC50 of simulated killing activity” value is 0.288 µg/mL. In addition, in [3], the dissociation constant Kd worked out at 0.536 nM, the koff was 0.000365 s⁻¹ and the kon was 680000 M⁻¹ s⁻¹. For the same molecule, a half-maximal response in test [7] (EC50) required 0.00325 µg/mL.

B4: CD25Q14-CA707-IgG1 (antibody, V domains shown)
VH: EVQLVQSGAEVKKPGESLKISCKGSGYSFSNYWIGWVRQMPGKGLEWMGIISPGDSTTKYSPSFQGQVTFSADKSTSTAYLQWSSLQASDTAMYYCVRGPYYLDYWGQGTLVTVSS
VL: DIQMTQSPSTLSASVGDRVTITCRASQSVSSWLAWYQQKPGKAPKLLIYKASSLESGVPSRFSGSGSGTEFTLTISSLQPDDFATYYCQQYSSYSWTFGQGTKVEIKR
notes: IgG1 expressed in HEK293
Regarding B4, the “EC50 of simulated killing activity” value in test [6] is 0.248 µg/mL. Besides, in test [3], the Kd came to 2.85 nM, the koff was found to be 0.000944 s⁻¹ and the kon stood at 331000 M⁻¹ s⁻¹. In [7], a half-maximal effect (EC50) was put at 0.00641 µg/mL.

B5: CD25Q8-BT942-IgG1 (antibody, V domains shown)
VH: QVQLVQSGAEVKKPGSSVKVSCKASGGTFSSDAINWVRQAPGQGLEWMGRIIPIFGVADYAQKFQGRVTLTADKSTSTAYMDLSSLRSEDTAVFYCARERGDYSNFWYFDLWGRGTLVTVSS
VL: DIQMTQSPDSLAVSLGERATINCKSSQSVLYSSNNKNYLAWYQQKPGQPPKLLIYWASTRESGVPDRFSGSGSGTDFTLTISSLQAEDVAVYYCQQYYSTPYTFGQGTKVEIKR
notes: IgG1 expressed in HEK293
In [3], B5 returned a dissociation constant (Kd) of 3.79 nM, a koff of 0.000339 s⁻¹ and an association rate constant (kon) of 89600 M⁻¹ s⁻¹. Further, the EC50 in test [5] is 0.00226 µg/mL. The “% PSTAT5 in CD3 positive T cells of PBMC” value in test [4] turned out to be 16.5%.

B6: CD25-MA251-IgG1 (antibody, V domains shown)
VH: QVQLKESGPGLVAPSQSLSITCTVSGFSLTSYGIQWVRQPPGKGLEWLGVIWAGGSTNYNSALMSRLSISKDNSKSQVFLKMNSLQTDDTAMYYCARAYGYDGSWLAYWGQGTLVTVSS
VL: QIVLSQSPAILSASPGEKVTMTCRASSSVSYMHWYQQKPGSSPKPWIFATSNLASGVPARFSGSGSGTSYSLTINRVEAEDADTYYCQQWSSNPPTFGGGTKLEIKR
notes: also called CD25Q-MA251; control antibody
For B6, the EC50 in [1] is 0.0106 µg/mL; in [8], 0.017 µg/mL; in [7] it was 0.0121 µg/mL; in test [9], 0.0141 µg/mL; in test [5], 0.0245 µg/mL. The results for the “EC50 of simulated killing activity” value in [6] and in [2] were 0.255 µg/mL and 0.361 µg/mL, respectively. Besides, in test [3], the affinity, expressed as Kd, was 5.19 nM. Also, in [3], the koff came to 0.000912 s⁻¹. In addition, in test [3], the kon was determined as 176000 M⁻¹ s⁻¹. The “% PSTAT5 in CD3 positive T cells of PBMC” value in [4] came to 18.5%.
